Groups on a side chain read outwards from the residue. No end group written: not given here. maleimide = maleimide group of MeO-PEG-maleimide, which reacts with the Cys side-chain thiol
T1: human mpl receptor (human, UniProt P40238 26-635)
T1 sequence (looked up): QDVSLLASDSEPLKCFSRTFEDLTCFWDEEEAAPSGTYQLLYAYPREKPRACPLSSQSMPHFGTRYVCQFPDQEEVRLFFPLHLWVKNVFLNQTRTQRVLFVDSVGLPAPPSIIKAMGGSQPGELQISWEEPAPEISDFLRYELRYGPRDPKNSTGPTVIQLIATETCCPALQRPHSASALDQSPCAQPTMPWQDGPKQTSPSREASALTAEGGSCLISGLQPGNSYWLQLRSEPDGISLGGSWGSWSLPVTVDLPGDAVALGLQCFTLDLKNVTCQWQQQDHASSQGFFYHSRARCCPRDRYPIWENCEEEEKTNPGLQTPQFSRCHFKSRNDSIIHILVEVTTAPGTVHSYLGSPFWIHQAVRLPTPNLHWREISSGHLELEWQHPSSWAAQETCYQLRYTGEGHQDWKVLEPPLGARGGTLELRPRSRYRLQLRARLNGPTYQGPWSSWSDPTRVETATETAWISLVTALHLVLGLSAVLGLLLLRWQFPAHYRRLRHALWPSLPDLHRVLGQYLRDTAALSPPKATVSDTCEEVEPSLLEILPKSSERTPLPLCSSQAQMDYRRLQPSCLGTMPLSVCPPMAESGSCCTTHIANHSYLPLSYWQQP


biological target: T1, human mpl receptor; assay: cell-based or functional assay; conditions: not given

Row | Molecule | Relative Potency (EC50), proliferation of murine 32D cells transfected with human mpl receptor
1 | IEGPTLRQWLAARAGIEGPTLRQWLAARA [TMP-(Gly)n-TMP, n = 1] | 4 log units of activity (1 unit is approximately 10-fold)
2 | IEGPTLRQWLAARAGGGGGGIEGPTLRQWLAARA [TMP-(Gly)n-TMP, n = 6] | 4 log units of activity (1 unit is approximately 10-fold)
3 | IEGPTLRQWLAARAGGGGGIEGPTLRQWLAARA [TMP-(Gly)n-TMP, n = 5] | 4 log units of activity (1 unit is approximately 10-fold)
4 | IEGPTLRQWLAARA (also: dimer of two TMP chains joined at C-termini through a Lys branch (structure only in a drawing)) [TMP C-C dimer (SEQ ID NO: 2)] | 3.5 log units of activity (1 unit is approximately 10-fold)
5 | IEGPTLRQWLAARAGGIEGPTLRQWLAARA [TMP-(Gly)n-TMP, n = 2] | 4 log units of activity (1 unit is approximately 10-fold)
6 | IEGPTLRQWLAARAIEGPTLRQWLAARA [TMP-(Gly)n-TMP, n = 0] | 4.5 log units of activity (1 unit is approximately 10-fold)
7 | IEGPTLRQWLAARAGPNGIEGPTLRQWLAARA [TMP-GPNG-TMP (SEQ ID NO. 10)] | 3 log units of activity (1 unit is approximately 10-fold)
8 | IEGPTLRQWLAARAGGGGIEGPTLRQWLAARA [TMP-(Gly)n-TMP, n = 4] | 4 log units of activity (1 unit is approximately 10-fold)
9 | IEGPTLRQWLAARAGGGGGGGGIEGPTLRQWLAARA [TMP-(Gly)n-TMP, n = 8] | 4.5 log units of activity (1 unit is approximately 10-fold)
10 | IEGPTLRQWLAARAGGGCGGGGIEGPTLRQWLAARA (also: homodimer: intermolecular disulfide between the linker Cys18 of two chains) [peptide 22 (dimer of a dimer, oxidised peptide 18)] | 4 log units of activity (1 unit is approximately 10-fold)
11 | IEGPTLRQWLAARAGGGNGSGGIEGPTLRQWLAARA [TMP-GGGNGSGG-TMP (SEQ ID NO. 19)] | 4 log units of activity (1 unit is approximately 10-fold)
12 | IEGPTLRQWLAARAGGGKGGGGIEGPTLRQWLAARA (not fully specified (residue 18)) [TMP-GGGK(PEG)GGGG-TMP (SEQ ID NO. 17)] | 5 log units of activity (1 unit is approximately 10-fold)
13 | IEGPTLRQWLAARAGGGKGGGGIEGPTLRQWLAARA [TMP-GGGKGGGG-TMP (SEQ ID NO. 14)] | 4 log units of activity (1 unit is approximately 10-fold)
14 | IEGPTLRQWLAARAGGGCGGGGIEGPTLRQWLAARA [TMP-GGGCGGGG-TMP (SEQ ID NO. 16)] | 4 log units of activity (1 unit is approximately 10-fold)
15 | IEGPTLRQALAARAGGGGGGGGIEGPTLRQALAARA [IEGPTLRQALAARA-GGGGGGGG-IEGPTLRQALAARA (SEQ ID NO. 13)] | 0.5 log units of activity (1 unit is approximately 10-fold)
16 | IEGPTLRQWLAARAGGGC([maleimide-mPEG 5 kDa])GGGGIEGPTLRQWLAARA [TMP-GGGC(PEG)GGGG-TMP (SEQ ID NO. 18)] | 5 log units of activity (1 unit is approximately 10-fold)
17 | IEGPTLRQWLAARAGGGIEGPTLRQWLAARA [TMP-(Gly)n-TMP, n = 3] | 4 log units of activity (1 unit is approximately 10-fold)
18 | IEGPTLRQWLAARAGGGGGGGIEGPTLRQWLAARA [TMP-(Gly)n-TMP, n = 7] | 4 log units of activity (1 unit is approximately 10-fold)
19 | IEGPTLRQWLAARA [TMP monomer (SEQ ID NO: 1)] | 1 log units of activity (1 unit is approximately 10-fold)

same assay, conditions: scale: log units of activity

Row | Molecule | Relative Potency (EC50), proliferation of murine 32D cells transfected with human mpl receptor
20 | TPO (ligand) | 4
21 | TMP-(Gly)n-TMP, n = 14 (peptide) | 4
22 | TMP-(Gly)n-TMP, n = 10 (peptide) | 4
23 | TMP-(Gly)n-TMP, n = 9 (peptide) | 4

From patent publication US20050080014A1 (Amgen, published 2005)
